B1: wild-type B. cereus LDH: wild-type B. cereus leucine dehydrogenase, amino acid sequence SEQ ID NO:1 (UniProt P0A392), cell-free extract from E. coli (protein, listed as Bacillus cereus)
chain: MTLEIFEYLEKYDYEQVVFCQDKESGLKAIIAIHDTTLGPALGGTRMWTYDSEEAAIEDALRLAKGMTYKNAAAGLNLGGAKTVIIGDPRKDKSEAMFRALGRYIQGLNGRYITAEDVGTTVDDMDIIHEETDFVTGISPSFGSSGNPSPVTAYGVYRGMKAAAKEAFGTDNLEGKVIAVQGVGNVAYHLCKHLHAEGAKLIVTDINKEAVQRAVEEFGASAVEPNEIYGVECDIYAPCALGATVNDETIPQLKAKVIAGSANNQLKEDRHGDIIHEMGIVYAPDYVINAGGVINVADELYGYNRERALKRVESIYDTIAKVIEISKRDGIATYVAADRLAEERIASLKNSRSTYLRNGHDIISRR
B2: L42V: variant B. cereus leucine dehydrogenase, leucine at position 42 substituted by valine, SEQ ID NO:5 (protein)
chain: B1 chain with L42V
B3: L42G: variant B. cereus leucine dehydrogenase, leucine at position 42 substituted by glycine, SEQ ID NO:6 (protein)
chain: B1 chain with L42G
B4: L42I: variant B. cereus leucine dehydrogenase, leucine at position 42 substituted by isoleucine, SEQ ID NO:4 (protein)
chain: B1 chain with L42I
B5: L42S: variant B. cereus leucine dehydrogenase (SEQ ID NO:1) with serine at position 42 (protein, listed as Bacillus cereus)
chain: B1 chain with L42S
B6: L42K: variant B. cereus leucine dehydrogenase (SEQ ID NO:1) with lysine at position 42 (protein, listed as Bacillus cereus)
chain: B1 chain with L42K
B7: L42H: variant B. cereus leucine dehydrogenase (SEQ ID NO:1) with histidine at position 42 (protein, listed as Bacillus cereus)
chain: B1 chain with L42H
B8: L42D: variant B. cereus leucine dehydrogenase (SEQ ID NO:1) with aspartic acid at position 42 (protein, listed as Bacillus cereus)
chain: B1 chain with L42D
B9: L42T: variant B. cereus leucine dehydrogenase (SEQ ID NO:1) with threonine at position 42 (protein, listed as Bacillus cereus)
chain: B1 chain with L42T
B10: L42Y: variant B. cereus leucine dehydrogenase (SEQ ID NO:1) with tyrosine at position 42 (protein, listed as Bacillus cereus)
chain: B1 chain with L42Y
B11: L42A: variant B. cereus leucine dehydrogenase, leucine at position 42 substituted by alanine, SEQ ID NO:20 (protein)
chain: B1 chain with L42A

Positions count from the first letter of the chain named. Numbers in names are those of the source.

One data set can be described thus: Reductive amination of 2-oxonon-8-enoic acid to (S)-LCAA by leucine dehydrogenase (NADH consumption at 340 nm, HPLC of aliquots). It counts as biochemical. The following applies: by four hours; 10 mM 2-oxonon-8-enoic acid, 2 M NH4Cl/OH, pH 9.5, 30° C., GDH/glucose NADH regeneration; FIG. 3. The protocol: (§1) To produce (S)-LCAA from 2-oxonon-8-enoic acid, a reaction was performed under the following conditions. In 200 mL total volume and a buffered pH of 9.5, the aqueous reaction mixture contained 10 mM 2-oxonon-8-enoic acid, 12 mM glucose, 1 mM NAD^+, 50 mg of purified glucose dehydrogenase (GDH-105; Codexis, Redwood City, Calif.), 2 M NH4Cl/OH, and approximately 60 mL/L of purified leucine dehydrogenase cell-free extract. FIG. 2 depicts the reaction scheme for converting 2-oxonon-8-enoic acid to (S)-LCAA using leucine dehydrogenase. The mixture was incubated at 30° C. and with shaking at 150 rpm for four hours.
Enzyme activity was measured spectrophotometrically by monitoring the consumption of NADH in the reductive amination at 340 nm. Activity was defined as the number of micromoles of NADH consumed in 1 minute (μmol min^−1). Aliquots of the reaction mixture were obtained periodically during the course of the reaction and subjected to analysis by high performance liquid chromatography (HPLC).
To increase the affinity of LDH for the 2-oxonon-8-enoic acid substrate and, thus, enhance the enzyme's activity for producing (S)-LCAA, amino acid substitutions were made within the region of LDH that binds to the substrate. Specifically, amino acid substitutions were introduced at position 42 of B. cereus leucine dehydrogenase (SEQ ID NO:1) using standard mutagenesis techniques. Wild-type B. cereus LDH, along with 19 variants (one for each amino acid substitution at position 42) were expressed and isolated as described in Example 1. The enzymatic activity of the variant proteins was evaluated alongside wild-type B. cereus LDH in the reaction described in Example 1. […] While the disclosure is not bound by any particular theory or mechanism of action, the substitutions that increased the enzymatic activity of the LDH enzyme are believed to have increased the depth of the substrate binding pocket in LDH and thereby increased the affinity of LDH for the 2-oxonon-8-enoic acid substrate.
B1: the “conversion of the substrate to LCAA” value was “greater than 99.5%”.

The same data set, now with this note: reaction described in Example 1; conversion of 2-oxonon-8-enoic acid to (S)-LCAA.
As to B2, the “increase in reaction rate relative to wild-type B. cereus LDH” value is listed as “approximately 1×10^3”.

For the molecule B3, the “increase in reaction rate relative to wild-type B. cereus LDH” value is given as “approximately 1×10^3”.

The data set is the same for the next values; noted with them: reaction described in Example 1; conversion of 2-oxonon-8-enoic acid to (S)-LCAA; FIG. 5.
For the molecule B4, the “enzymatic activity (reaction rate) relative to wild-type B. cereus LDH” value was “significantly enhanced activity”.

As for B2, the “enzymatic activity (reaction rate) relative to wild-type B. cereus LDH” value is “significantly enhanced activity”.

Consider B5, for which the “enzymatic activity (reaction rate) relative to wild-type B. cereus LDH” value is reported as “enhanced activity”.

In the case of B3, the “enzymatic activity (reaction rate) relative to wild-type B. cereus LDH” value is “significantly enhanced activity”.

With B6, the “enzymatic activity (reaction rate) relative to wild-type B. cereus LDH” value is “reduced activity”.

As to B7, the “enzymatic activity (reaction rate) relative to wild-type B. cereus LDH” value was “reduced activity”.

As for B8, the “enzymatic activity (reaction rate) relative to wild-type B. cereus LDH” value is “reduced activity”.

With B9, the “enzymatic activity (reaction rate) relative to wild-type B. cereus LDH” value was “enhanced activity”.

For B10, the “enzymatic activity (reaction rate) relative to wild-type B. cereus LDH” value was “reduced activity”.

B11: the “enzymatic activity (reaction rate) relative to wild-type B. cereus LDH” value is listed as “enhanced activity”.

A short description of the next data set: HPLC analysis of the percentage of (S)-enantiomer in the LCAA reaction product. The class given is biochemical. The conditions noted are these: LCAA product of the Example 1 reaction, FIG. 4. The protocol:
as §1
To determine what percentage of the LCAA reaction product of the reaction was (S)-LCAA, aliquots of the reaction mixture were analyzed using high performance liquid chromatography (HPLC).
With B1, the “percentage of the reaction product that was the (S)-enantiomer” value is “greater than 99.5%”.
